“Also recorded” adds a separate entry of the source.
How the values were obtained:
HUVEC = experiment: TEER analysis of endothelial barrier function; assay type: cell-based, human; settings: HUVEC; S1P 10-300 nM, A1M 0.8-24 μg/ml; unloaded controls up to 24 μg/ml
Method: Transendothelial Electrical Resistance (TEER) was performed on HUVEC as described previously (Swendeman et al, 2017). Essentially, HUVECs were maintained in HUVEC Growth Medium (HGM; M199 medium supplemented with 10% FCS (Corning), 1:100 Pen-Strep (Sigma), 8 mM Glutamine (Sigma), Heparin (Sigma, 100 U, LMW) and Sheep Brain Extract prepared (REF). All cultures were maintained on Fibrobronectin (2 μg/ml) coated plates. For TEER analysis a 96 well ECIS system (96W10idf PET array, Applied BioPhysics) was employed. Wells were coated with Fibronectin (2 μg/ml) resuspended in saline for 30 minutes at room temp. HUVECs were harvested, resuspended in HGM at a cell density of 25-30×10^3 cells/well and allowed to adhere overnight. Prior to analysis, culture media was removed and replaced with M199 media supplemented with Pen-Strep/Glutamine and 1% FCS for 30 minutes. For stimulation studies, either Iloprost (Cayman Biochemicals) or Iloprost loaded onto ApoA1 or ApoA1-ApoM chaperones, or S1P prepared on ApoA1-ApoM or ApoM-Fc chaperones were added to cultures and TEER studies were performed from 3-24 hours.

ICAM-1 = experiment: TNF-α-induced ICAM-1 expression in HUVEC (western blot); assay type: cell-based, human; settings: 10 min pretreatment, TNFα 10 ng/ml 5 hours, 200 μg/ml
Method: HUVECs were plated as described above. After 24 hours cells were shifted to M199 media supplemented with 1% FCS, 8 mM Glutamine, 1× Pen-Strep. After 30 minutes, cells were pretreated for 10 minutes with media, ApoM-Fc-S1P (100 nM S1P), Iloprost (100 nM), ApoA1-ApoM (200 μg/ml), ApoA1-ApoM-Iloprost (200 ug/ml; 100 nM Iloprost) or ApoA1-ApoM-S1P (200 μg/ml 100 nM S1P) or in combinations and subsequently treated with TNF-α (10 ng/ml). After 5 hours, cells were lysed with cell lysis buffer (TBS-T; 20 mM Tris-pH8, 160 mM NaCl, 1% Triton, 1× protease inhibitor cocktail (Sigma)), collected and centrifuged at 20,000×g for 5 minutes at 4° C., extracts were analyzed by 10% SDS-PAGE, transferred to nitrocellulose membrane (Bio-Rad), blocked in 5% milk, and probed with antibodies to ICAM-1 (1:1000, sc-8439, Santa Cruz Biotech) and Actin (1:5000, sc-8432, Santa Cruz Biotech). Blots were developed with appropriate secondary antibodies linked to HRP and visualized by chemiluminescence (Immobilon Western, EMD Millipore) using a ChemiDoc Imaging (Biorad).

NF-κB = experiment: TNFα-induced NF-κB luciferase reporter assay in HMEC; assay type: cell-based, human
Method: TNFα-dependent NF-κB signaling was determined by using an NFκB-Luciferase based reporter assay system (pGL4.32[luc2P/NF-κB-RE/Hygro]; Promega). A stable NFκB reporter cell line in human microvascular endothelial cells (HMEC-1; ATCC) was created. HMEC were maintained in 10% FCS/Pen-Strep MCDB media supplemented with 2 mM L-Glutamine (Sigma), EGF (2 ng/ml; R&D systems) and Hydrocortisone (1 ng/ml; Sigma). […] The 5×10^5 reporter cells were distributed to 12 well plates and allowed to adhere for 24 hours. Media was replaced with MCDB media supplemented with 1% FCS, L-Glutamine. […] Samples were extracted using cell lysis buffers (Promega), luciferin substrate was added and the plates were measured for […] at 470 nm for 8-15 minutes in a SpectraMax L 96-well plate reader (Molecular Devices).

Neutrophils = experiment: fMLP-dependent neutrophil ROS generation; assay type: cell-based, mouse; settings: ApoM-S1P 100 nM S1P, ApoA1-Iloprost 160 nM drug, area under the curve
Method: Peritoneal Neutrophils were isolated from C57Bl/6 mice after thioglycolate elicitation. Thioglycolate (2 ml of 2% v/v) resuspended in water was administered by intraperitoneal injection. After 4 hours, mice were euthanized and 5 ml of HBSS was injected intraperitoneally, the abdomen was messaged for 1 minute and the peritoneal fluid was removed. The resulting cells were pelleted, RBCs were lysed with ACK buffer, re-pelleted and resuspended in PBS-glucose. Cells were counted, 5×10^5 cells were dispersed into 96 well clear bottom plates containing luminol 100 mM and 10 U/ml of horseradish peroxidase and read for blank background. F-Met-Leu-Phe (fMLP; 10 μM) was added and plates were read on a SpectraMaxL1 (Molecular Devices, San Jose, CA) over 5 minutes as described previously. The area under the curve was calculated by using GraphPad Prism 7 (GraphPad Software, San Diego, CA).

B1: A1M: recombinant fusion protein of Apolipoprotein A1 and Apolipoprotein M with GGGGS linker and 6x His tag (SEQ ID NO: 23) (protein)
chain: MKAVVLAVALVFLTGSQAWHVWQQDEPQSQWDKVKDFANVYVDAVKDSGRDYVSQFESSSLGQQLNLNLLENWDTLGSTVSQLQERLGPLTRDFWDNLEKETDWVRQEMNKDLEEVKQKVQPYLDEFQKKWKEDVELYRQKVAPLGAELQESARQKLQELQGRLSPVAEEFRDRMRTHVDSLRTQLAPHSEQMRESLAQRLAELKSNPTLNEYHTRAKTHLKTLGEKARPALEDLRHSLMPMLETLKTKAQSVIDKASETLTAQTRTRPLGGGGSNQCPEHSQLTALGMDDTETPEPHLGLWYFIAGAASTTEELATFDPVDNIVFNMAAGSAPRQLQLRATIRTKSGVCVPRKWTYRLTEGKGNMELRTEGRPDMKTDLFSSSCPGGIMLKETGQGYQRFLLYNRSPHPPEKCVEEFQSLTSCLDFKAFLVTPRNQEACPLSSKHHHHHH
HUVEC
  enhancement of endothelial barrier function (TEER): no functional barrier protection; also recorded: did not induce endothelial barrier enhancement
ICAM-1
  inhibition of TNFα-induced ICAM1 expression: inhibiting downstream inflammatory ICAM1 expression
NF-κB; 100-400 μg/ml, bi-phasic dose-response
  inhibition of TNFα-induced NF-κB activity at higher doses: not as inhibitory
NF-κB; low doses 25-50 μg/ml
  inhibition of TNFα-induced NF-κB activity: ~25%

B2: ApoM-S1P: ApoM-bound S1P as named in FIG. 6 results; chaperone form not specified (protein, UniProt O95445 1-188, looked up)
Apolipoprotein M: MFHQIWAALLYFYGIILNSIYQCPEHSQLTTLGVDGKEFPEVHLGQWYFIAGAAPTKEELATFDPVDNIVFNMAAGSAPMQLHLRATIRMKDGLCVPRKWIYHLTEGSTDLRTEGRPDMKTELFSSSCPGGIMLNETGQGYQRFLLYNRSPHPPEKCVEEFKSLTSCLDSKAFLLTPRNQEACELSNN
modifications: bound S1P
notes: chaperone form not specified
Neutrophils
  inhibition of neutrophil ROS generation: ~42%

Source: patent publication US20250042974A1, “LIPID MEDIATOR CHAPERONE AND USES THEREOF” (The Children's Medical Center Corporation, priority 2021, published 2025)
